Laboratory results published in the supplement of paper PMC10567573.

B1: TSN (parent)
chain: FLAAEQDIREEIRKVVQSLEQTAR
B2: BRF1 (parent)
chain: CTACGSVLEDNIIVSEVQFVESSG

Variants of: B1
Assay: protein stability index of a GFP-peptide fusion (GPS, HEK-293T) (PSI 1-6); higher = more stable
Settings: c terminus: a fixed tail appended
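Note: lentivirally expressed fusions sorted by FACS into six bins by GFP to DsRed ratio, PSI derived from sequencing read proportions per bin multiplied by bin number.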

Protein stability index of substitutions, site by site:
E10: S 2.33 | D 1.63 | G 2.92 | P 3.21 | A 2.11 | W 2.08 | H 2.5 | F 1.35 | Q 1.85 | T 2.83 | L 1.96 | K 2.15 | V 2.39 | N 2.12 | R 2.06 | Y 1.96 | C 2.47 | M 1.88 | I 1.53
F1: V 2.62 | A 2.35 | S 2.51 | W 1.85 | H 2.5 | K 2.41 | M 2.39 | T 2.72 | C 1.9 | E 2.45 | R 2.79 | P 2.78 | L 2.36 | N 3.17 | D 2.49 | I 2.51 | G 2.26 | Y 2.04 | Q 2.23
D7: E 1.89 | R 2.35 | L 3.27 | V 2.13 | G 2.22 | Y 2.44 | I 2.93 | W 2.21 | C 2.28 | K 1.51 | S 1.79 | Q 1.3 | F 2.52 | A 2.18 | T 1.75 | P 2.22 | M 1.73 | N 2.05 | H 2.78
A4: K 1.71 | R 1.73 | T 2.13 | I 2.08 | L 2.29 | H 1.57 | V 1.93 | D 2.11 | E 2.51 | P 2.01 | M 1.69 | Q 2.09 | F 2.71 | Y 2.03 | S 2.54 | N 1.52 | G 2.04
I8: C 2.56 | H 3.17 | K 2.56 | T 2.78 | W 2.65 | E 3.64 | S 3.33 | P 3.41 | G 4.12 | R 3.15 | M 1.73 | N 4.12 | Y 2.42 | L 2.02 | F 2.57 | A 3.02 | V 2.17 | D 3.44 | Q 3.16
E5: I 2.81 | W 2.58 | H 2.26 | G 2.87 | L 3.1 | F 2.5 | Y 1.76 | D 2.27 | P 3 | C 2.25 | T 3.32 | M 2.79 | S 2.52 | R 2.66 | Q 2.71 | A 2.69 | V 3.62 | N 3.04
E11: C 2.21 | A 2.02 | Q 2.29 | K 2.65 | Y 1.76 | L 2.19 | S 2.47 | H 2.58 | V 1.95 | R 2.89 | D 2.77 | N 3.58 | I 1.72 | P 3.15 | M 1.9 | T 2.43 | F 1.59 | W 1.59 | G 2.68
A3: P 2.17 | G 1.87 | Q 1.73 | T 2 | Y 2.03 | W 1.5 | D 2.38 | I 1.87 | L 2.33 | N 1.88 | C 1.36 | M 1.72 | H 2.1 | V 1.88 | F 2.02 | S 2.5 | E 2.42 | K 2.13 | R 2.56
Q6: T 1.46 | P 2.85 | E 2.85 | M 1.86 | S 2.25 | Y 2.09 | A 2.01 | R 2.53 | C 1.65 | G 1.84 | H 1.63 | W 2.75 | L 1.99 | I 2.1 | F 1.87 | D 1.85 | V 1.79 | K 1.78 | N 1.91
L2: Q 2.03 | V 1.91 | A 2.19 | G 3.19 | N 2.38 | I 1.66 | P 2.68 | W 2.02 | R 2.4 | D 1.73 | F 1.71 | T 2.08 | K 2.11 | M 1.96 | C 1.82 | Y 1.85 | E 1.68 | H 1.75 | S 1.91
I12: M 1.94 | L 2.63 | G 3.81 | V 2.1 | F 2.89 | H 4.29 | N 4.68 | D 4.64 | R 4.3 | S 2.59 | C 1.58 | K 3.98 | P 4.45 | A 2.32 | Q 4.06 | T 3.07 | E 4.52
R9: Y 2.29 | V 1.75 | W 1.64 | C 1.43 | Q 2.04 | E 1.69 | P 3.1 | F 2.4 | A 1.48 | G 3.12 | K 2.69 | H 1.49 | L 2.26 | M 2.11 | D 2.31 | N 2.28 | T 2.06 | I 1.84 | S 2.26

Variants of: B2
Assay: as above
Settings: c terminus: a fixed tail appended

Protein stability index, by site and new letter:
S15: F 1.04 | N 3.79 | M 1.16 | V 1.91 | E 3.74 | D 4.08
I12: H 3.41
C4: V 3.83 | N 4.37 | E 4.21 | L 3.15 | F 2.78 | M 3.88 | H 4.04
F19: A 5.26 | G 4.32 | L 3.49 | D 4.53
A3: F 2.4 | L 2.08 | Y 2.5 | Q 3.88
S22: T 2.33 | I 1.52 | Y 2.38 | M 2.44 | G 2.97 | P 3.39
N11: I 1.14 | P 2.91 | S 2.42 | M 1.05 | W 1.01 | G 2.96
G5: T 2.91 | Y 1.76 | M 2.1 | H 1.76 | A 2.86
V20: E 3.88 | F 3.15 | H 3.23 | N 2.94
L8: W 1.89 | E 3.68 | C 3.29 | Y 2.93 | D 3.65
Q18: R 2.42 | K 3.27 | W 1.75 | Y 1.47 | S 2.44
E9: P 3.75 | I 2.08 | W 1.83 | C 2.31 | A 3.03 | G 2.16 | M 2.57
I13: D 3.13 | R 3.92 | P 4.25 | G 3.61 | T 3.56
V14: H 3.94 | K 3.53 | I 2.68 | E 4.28 | F 2.57
E16: D 3.87 | G 3.51 | N 2.9
G24: S 3.08 | E 3.58 | F 2.03 | W 2.09
E21: T 2.34 | M 2.4
S23: L 3.03 | K 4.04
S6: I 1.27 | T 3.38 | L 1.39
C1: F 2.63 | S 4.13 | V 2.2
V17: A 4.27 | L 2.29 | H 4.4 | K 4.41 | R 3.83 | Y 2.87 | M 2.37 | D 3.87
T2: Q 3.48 | G 2.33 | S 2.87
D10: G 1.84 | M 2.94 | Q 2.14 | A 2.41 | E 3.38 | H 2.67
V7: L 2.51 | S 2.85 | A 3.8 | K 4.22 | Y 2.37 | C 2.64 | P 3.64
